Reference: the supplement of paper PMC10567573

B1: ZNF511 (parent)
chain: YEHHYHTLHGNVCSFCKRAFPSGH

Variants of: B1
Assay: protein stability index of a GFP-peptide fusion (GPS, HEK-293T) (PSI 1-6); higher = more stable
Settings: c terminus: a fixed tail appended
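Also: lentivirally expressed fusions sorted by FACS into six bins by GFP to DsRed ratio, PSI derived from sequencing read proportions per bin multiplied by bin number.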

**Q.** With YEHHYHTLHMNVCSFCKRAFPSGH as the variant, how does the protein stability index read?
**A.** 2.01

**Q.** For YEHHYHTLHDNVCSFCKRAFPSGH, which protein stability index is on record?
**A.** 2.29

**Q.** With YEHHYHTLHFNVCSFCKRAFPSGH as the variant, how does the protein stability index read?
**A.** 1.78

**Q.** With YEHHYHTLHINVCSFCKRAFPSGH as the variant, how does the protein stability index read?
**A.** 1.83

**Q.** For YEHHYHTLHENVCSFCKRAFPSGH, which protein stability index is on record?
**A.** 2.39

**Q.** For YEHHYHTLHVNVCSFCKRAFPSGH, which protein stability index is on record?
**A.** 1.87

**Q.** For YEHHYHTLHQNVCSFCKRAFPSGH, which protein stability index is on record?
**A.** 1.78

**Q.** For YEHHYHTLHRNVCSFCKRAFPSGH, which protein stability index is on record?
**A.** 1.59

**Q.** For YEHHYHTLHYNVCSFCKRAFPSGH, which protein stability index is on record?
**A.** 2.46

**Q.** With YEHHYHTLHWNVCSFCKRAFPSGH as the variant, how does the protein stability index read?
**A.** 2.29

**Q.** Which protein stability index does the source give for YEHHYHTLHSNVCSFCKRAFPSGH here?
**A.** 1.97

**Q.** With YEHHYHTLHANVCSFCKRAFPSGH as the variant, how does the protein stability index read?
**A.** 2.23

**Q.** For YEHHYHTLHKNVCSFCKRAFPSGH, which protein stability index is on record?
**A.** 2.76

**Q.** Which protein stability index does the source give for YEHHYHTLHPNVCSFCKRAFPSGH here?
**A.** 1.95

**Q.** Which protein stability index does the source give for YEHHYHTLHTNVCSFCKRAFPSGH here?
**A.** 2.13

**Q.** Which protein stability index does the source give for YEHHYHTLHCNVCSFCKRAFPSGH here?
**A.** 2.46

**Q.** Which protein stability index does the source give for YEHHYHTLHNNVCSFCKRAFPSGH here?
**A.** 2.28

**Q.** With YEHHYHTLHLNVCSFCKRAFPSGH as the variant, how does the protein stability index read?
**A.** 1.95

**Q.** With YEHHYHTLHHNVCSFCKRAFPSGH as the variant, how does the protein stability index read?
**A.** 1.87

**Q.** Which protein stability index does the source give for YEHHYHTLPGNVCSFCKRAFPSGH here?
**A.** 2.72

**Q.** Which protein stability index does the source give for YEHHYHTLIGNVCSFCKRAFPSGH here?
**A.** 2.28

**Q.** With YEHHYHTLRGNVCSFCKRAFPSGH as the variant, how does the protein stability index read?
**A.** 2.48

**Q.** For YEHHYHTLNGNVCSFCKRAFPSGH, which protein stability index is on record?
**A.** 2.49

**Q.** With YEHHYHTLTGNVCSFCKRAFPSGH as the variant, how does the protein stability index read?
**A.** 2.16

**Q.** With YEHHYHTLMGNVCSFCKRAFPSGH as the variant, how does the protein stability index read?
**A.** 2.06

**Q.** For YEHHYHTLLGNVCSFCKRAFPSGH, which protein stability index is on record?
**A.** 1.5

**Q.** With YEHHYHTLYGNVCSFCKRAFPSGH as the variant, how does the protein stability index read?
**A.** 2

**Q.** With YEHHYHTLQGNVCSFCKRAFPSGH as the variant, how does the protein stability index read?
**A.** 2.19

**Q.** Which protein stability index does the source give for YEHHYHTLVGNVCSFCKRAFPSGH here?
**A.** 2.57

**Q.** With YEHHYHTLKGNVCSFCKRAFPSGH as the variant, how does the protein stability index read?
**A.** 2.77

**Q.** Which protein stability index does the source give for YEHHYHTLWGNVCSFCKRAFPSGH here?
**A.** 1.83

**Q.** With YEHHYHTLSGNVCSFCKRAFPSGH as the variant, how does the protein stability index read?
**A.** 1.72

**Q.** For YEHHYHTLHGNLCSFCKRAFPSGH, which protein stability index is on record?
**A.** 2.06

**Q.** With YEHHYHTLHGNACSFCKRAFPSGH as the variant, how does the protein stability index read?
**A.** 2.44

**Q.** With YEHHYHTLHGNTCSFCKRAFPSGH as the variant, how does the protein stability index read?
**A.** 2.44

**Q.** With YEHHYHTLHGNPCSFCKRAFPSGH as the variant, how does the protein stability index read?
**A.** 2.31

**Q.** Which protein stability index does the source give for YEHHYHTLHGNYCSFCKRAFPSGH here?
**A.** 2.13

**Q.** With YEHHYHTLHGNDCSFCKRAFPSGH as the variant, how does the protein stability index read?
**A.** 3.41

**Q.** With YEHHYHTLHGNECSFCKRAFPSGH as the variant, how does the protein stability index read?
**A.** 3.67

**Q.** Which protein stability index does the source give for YEHHYHTLHGNRCSFCKRAFPSGH here?
**A.** 2.24

**Q.** With YEHHYHTLHGNGCSFCKRAFPSGH as the variant, how does the protein stability index read?
**A.** 1.84

**Q.** For YEHHYHTLHGNSCSFCKRAFPSGH, which protein stability index is on record?
**A.** 2.41

**Q.** With YEHHYHTLHGNMCSFCKRAFPSGH as the variant, how does the protein stability index read?
**A.** 2.17

**Q.** Which protein stability index does the source give for YEHHYHTLHGNQCSFCKRAFPSGH here?
**A.** 2.66

**Q.** With YEHHYHTLHGNWCSFCKRAFPSGH as the variant, how does the protein stability index read?
**A.** 2.14

**Q.** Which protein stability index does the source give for YEHHYHTLHGNFCSFCKRAFPSGH here?
**A.** 2.05

**Q.** With YEHHYHTLHGNKCSFCKRAFPSGH as the variant, how does the protein stability index read?
**A.** 2

**Q.** Which protein stability index does the source give for YEHHYHTLHGNCCSFCKRAFPSGH here?
**A.** 2.02

**Q.** For YEHHYHTLHGNICSFCKRAFPSGH, which protein stability index is on record?
**A.** 2.3

**Q.** For YEHHYHTLHGNHCSFCKRAFPSGH, which protein stability index is on record?
**A.** 2.4

**Q.** Which protein stability index does the source give for YEHHYHTLHGNNCSFCKRAFPSGH here?
**A.** 2.73

**Q.** With YEHHYHTLHGNVMSFCKRAFPSGH as the variant, how does the protein stability index read?
**A.** 1.83

**Q.** With YEHHYHTLHGNVRSFCKRAFPSGH as the variant, how does the protein stability index read?
**A.** 2.17

**Q.** With YEHHYHTLHGNVASFCKRAFPSGH as the variant, how does the protein stability index read?
**A.** 2.18

**Q.** For YEHHYHTLHGNVHSFCKRAFPSGH, which protein stability index is on record?
**A.** 1.9

**Q.** With YEHHYHTLHGNVSSFCKRAFPSGH as the variant, how does the protein stability index read?
**A.** 2.22

**Q.** With YEHHYHTLHGNVESFCKRAFPSGH as the variant, how does the protein stability index read?
**A.** 2.36

**Q.** With YEHHYHTLHGNVQSFCKRAFPSGH as the variant, how does the protein stability index read?
**A.** 2.63

**Q.** With YEHHYHTLHGNVKSFCKRAFPSGH as the variant, how does the protein stability index read?
**A.** 2.04

**Q.** With YEHHYHTLHGNVDSFCKRAFPSGH as the variant, how does the protein stability index read?
**A.** 2.29

**Q.** Which protein stability index does the source give for YEHHYHTLHGNVPSFCKRAFPSGH here?
**A.** 2.11

**Q.** Which protein stability index does the source give for YEHHYHTLHGNVISFCKRAFPSGH here?
**A.** 2.6

**Q.** Which protein stability index does the source give for YEHHYHTLHGNVNSFCKRAFPSGH here?
**A.** 2.67

**Q.** Which protein stability index does the source give for YEHHYHTLHGNVTSFCKRAFPSGH here?
**A.** 1.97

**Q.** Which protein stability index does the source give for YEHHYHTLHGNVFSFCKRAFPSGH here?
**A.** 1.5

**Q.** Which protein stability index does the source give for YEHHYHTLHGNVYSFCKRAFPSGH here?
**A.** 1.78

**Q.** Which protein stability index does the source give for YEHHYHTLHGNVGSFCKRAFPSGH here?
**A.** 2.54

**Q.** For YEHHYHTLHGNVWSFCKRAFPSGH, which protein stability index is on record?
**A.** 1.52

**Q.** With YEHHYHTLHGNVVSFCKRAFPSGH as the variant, how does the protein stability index read?
**A.** 1.92

**Q.** For YEHHYHTLHGNVLSFCKRAFPSGH, which protein stability index is on record?
**A.** 1.5

**Q.** For YEHHYHTLHGTVCSFCKRAFPSGH, which protein stability index is on record?
**A.** 2.68

**Q.** Which protein stability index does the source give for YEHHYHTLHGIVCSFCKRAFPSGH here?
**A.** 1.83

**Q.** Which protein stability index does the source give for YEHHYHTLHGSVCSFCKRAFPSGH here?
**A.** 1.95

**Q.** With YEHHYHTLHGHVCSFCKRAFPSGH as the variant, how does the protein stability index read?
**A.** 2.21

**Q.** Which protein stability index does the source give for YEHHYHTLHGFVCSFCKRAFPSGH here?
**A.** 2.6

**Q.** For YEHHYHTLHGEVCSFCKRAFPSGH, which protein stability index is on record?
**A.** 2.22

**Q.** For YEHHYHTLHGVVCSFCKRAFPSGH, which protein stability index is on record?
**A.** 1.87

**Q.** With YEHHYHTLHGDVCSFCKRAFPSGH as the variant, how does the protein stability index read?
**A.** 2.75

**Q.** With YEHHYHTLHGMVCSFCKRAFPSGH as the variant, how does the protein stability index read?
**A.** 2.68

**Q.** For YEHHYHTLHGPVCSFCKRAFPSGH, which protein stability index is on record?
**A.** 2.6

**Q.** Which protein stability index does the source give for YEHHYHTLHGQVCSFCKRAFPSGH here?
**A.** 2.2

**Q.** For YEHHYHTLHGLVCSFCKRAFPSGH, which protein stability index is on record?
**A.** 1.77

**Q.** Which protein stability index does the source give for YEHHYHTLHGCVCSFCKRAFPSGH here?
**A.** 2.73

**Q.** With YEHHYHTLHGYVCSFCKRAFPSGH as the variant, how does the protein stability index read?
**A.** 1.99

**Q.** Which protein stability index does the source give for YEHHYHTLHGGVCSFCKRAFPSGH here?
**A.** 2.12

**Q.** Which protein stability index does the source give for YEHHYHTLHGWVCSFCKRAFPSGH here?
**A.** 2.17

**Q.** For YEHHYHTLHGKVCSFCKRAFPSGH, which protein stability index is on record?
**A.** 2.31

**Q.** Which protein stability index does the source give for YEHHYHTLHGRVCSFCKRAFPSGH here?
**A.** 2.62

**Q.** With YEHHYHTLHGAVCSFCKRAFPSGH as the variant, how does the protein stability index read?
**A.** 2.64

**Q.** For YEHHYHTLHGNVCAFCKRAFPSGH, which protein stability index is on record?
**A.** 2.94

**Q.** Which protein stability index does the source give for YEHHYHTLHGNVCDFCKRAFPSGH here?
**A.** 2.4

**Q.** For YEHHYHTLHGNVCEFCKRAFPSGH, which protein stability index is on record?
**A.** 2.53

**Q.** With YEHHYHTLHGNVCCFCKRAFPSGH as the variant, how does the protein stability index read?
**A.** 2.39

**Q.** With YEHHYHTLHGNVCFFCKRAFPSGH as the variant, how does the protein stability index read?
**A.** 2.03
